Test results reported in PMC8100869 (Biochemistry, 2020).

Molecular target: the molecule itself
Test: crystal structure

B1: Catabolite Activator Protein (CAP) (natural protein)
chain: VLGKPQTDPTLEWFLSHCHIHKYPSKSTLIHQGEKAETLYYIVKGSVAVLIKDEEGKEMILSYLNQGDFIGELGLFEEGQERSAWVRAKTACEVAEISYKKFRQLIQVNPDILMRLSAQMARRLQVTSEKVGNLAFLDVTGRIAQTLLNLAKQPDAMTHPDGMQIKITRQEIGQIVGCSRETVGRILKMLEDQNLISAHGKTIVVYGTR
- binding result: binds
